Results published in US20180222961A1 (IMMATICS BIOTECHNOLOGIES, published 2018).

Target: T1, HLA-B*07:02 (human)
T1 construct: also called peptide-receptive MHC molecules
Assay: UV-exchange b2m ELISA; exchange-yield grade
From the text: Candidate peptides for T cell based therapies according to the present invention were further tested for their MHC binding capacity (affinity). The individual peptide-MHC complexes were produced by UV-ligand exchange, where a UV-sensitive peptide is cleaved upon UV-irradiation, and exchanged with the peptide of interest as analyzed. Only peptide candidates that can effectively bind and stabilize the peptide-receptive MHC molecules prevent dissociation of the MHC complexes. To determine the yield of the exchange reaction, an ELISA was performed based on the detection of the light chain (β2m) of stabilized MHC complexes. The assay was performed as generally described in Rodenko et al. (Rodenko et al., 2006).
96 well MAXISorp plates (NUNC) were coated over night with 2 ug/ml streptavidin in PBS at room temperature, washed 4× and blocked for 1 h at 37° C. in 2% BSA containing blocking buffer. Refolded HLA-A*02:01/MLA-001 monomers served as standards, covering the range of 15-500 ng/ml. Peptide-MHC monomers of the UV-exchange reaction were diluted 100-fold in blocking buffer. Samples were incubated for 1 h at 37° C., washed four times, incubated with 2 ug/ml HRP conjugated anti-β2m for 1 h at 37° C., washed again and detected with TMB solution that is stopped with […]. Absorption was measured at 450 nm. Candidate peptides that show a high exchange yield (preferably higher than 50%, most preferred higher than 75%) are generally preferred for a generation and production of antibodies or fragments thereof, and/or T cell receptors or fragments thereof, as they show sufficient avidity to the MHC molecules and prevent dissociation of the MHC complexes.

Row | Binder | peptide exchange yield
1 | FPHPEMTTSM | 50 to 75%
2 | FPFVTGSTEM | 20 to 50%
3 | FPHSEMTTVM | 50 to 75%
4 | FPYSEVTTL | 50 to 75%
5 | HPVETSSAL | 50 to 75%
6 | RPMPNLRSV | 50 to 75%
7 | HPDPVGPGL | 20 to 50%
8 | FPMSPVTSV | 50 to 75%
9 | LPTSESLVSF | 20 to 50%
10 | SPMDTFLLI | 20 to 50%
11 | LPTQTTSSL | 50 to 75%
12 | LPLGTSMTF | 50 to 75%
13 | FPNRLNLEA | 50 to 75%
14 | SPAEPSVYATL | > 75%
15 | FPHSEMTTL | 50 to 75%
16 | FPHSEMTTV | 50 to 75%
17 | VPYRVVGL | 20 to 50%
18 | LPEISTRTM | 20 to 50%
19 | LPLDTSTTL | 50 to 75%
20 | EPVTSSLPNF | 20 to 50%
21 | HPKTESATPAAY | 20 to 50%
22 | LPSVSGVKTTF | 20 to 50%
23 | LPAGTTGSLVF | 50 to 75%
24 | HVTKTQATF | 20 to 50%
25 | SPLPVTSLI | 50 to 75%
26 | SPLPVTSLL | 50 to 75%
27 | FPAMTESGGMIL | 50 to 75%
28 | GPRNAQRVL | 50 to 75%
29 | SPDPSKHLL | 20 to 50%
30 | VPSEIDAAF | 20 to 50%
